Reference: patent US20260258388A1 (REGENTS OF THE UNIVERSITY OF MICHIGAN, published 2026)

Tests used:
[1] = biological target: Ly76 (Ter119 antigen) on mouse red blood cells (mouse); assay: binding assay using mouse RBC ghosts
[2] = biological target: Ly76 (Ter119 antigen) on mouse red blood cells (mouse); assay: binding assay on mouse RBCs
[3] = biological target: Ly76 (Ter119 antigen) on mouse red blood cells (mouse); assay: 125I-labelled protein injected in mice; radioactivity in RBC pellet vs plasma 1 hour after injection
[4] = biological target: Ly76 (Ter119 antigen) on mouse red blood cells (mouse); assay: cell-based or functional assay
[5] = biological target: T1, human FcγRIIA (human, UniProt P12318 34-317); assay: flow cytometry, washed platelets of transgenic mice expressing human FcγRIIA
T1 construct: whole, on cells; also called hFcγRIIA; platelet FcγRIIA
T1 sequence (looked up): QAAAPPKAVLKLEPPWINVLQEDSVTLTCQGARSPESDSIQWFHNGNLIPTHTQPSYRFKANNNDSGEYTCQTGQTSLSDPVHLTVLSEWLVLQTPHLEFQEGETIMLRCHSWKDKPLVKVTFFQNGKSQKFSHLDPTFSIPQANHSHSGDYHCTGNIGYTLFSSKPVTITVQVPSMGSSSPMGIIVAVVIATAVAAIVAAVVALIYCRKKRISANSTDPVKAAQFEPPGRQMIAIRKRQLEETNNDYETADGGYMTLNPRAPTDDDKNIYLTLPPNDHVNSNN

[6] = biological target: T1, human FcγRIIA; assay: flow cytometry, THP-1 cells
[7] = biological target: T1, human FcγRIIA; assay: flow cytometry, human platelets
[8] = biological target: T1, human FcγRIIA; assay: flow cytometry, human platelets, His-tagged protein detected with Alexa 488 anti-His antibody

## Ter119 scFv
[1]
  Kd: 30 nM

## Ter119 scFv-IdeS fusion protein
[2]
  Kd: 25 nM
[3]
  percent bound to RBCs in blood: > 98%
[1]
  Kd: 26 nM
[4]
  inhibition of agglutination of mouse RBCs loaded with Ter119 mAb: 1.25 nM

B1: scIV.3-LPETGG-FAM (scFv)
scFv: QVQLVQSGAEVKKPGASVKVSCKASGYTFTNYGMNWVRQAPGQRLEWMGWLNTYTGESWYPDDFKGRVTITRDTSASTAYMELSSLRSEDTAVYYCARGDYGYDDPLDYWGQGTLVTVSSGAGGSGGGGSGGGGSGGGGSDIVMTQSPLSLPVTPGEPASISCRSSKSLLHTNQNTYLHWFLQKPGQSPQLLIYRMSVLASGVPDRFSGSGSGTDFTLKISRVEAEDVGVYYCMQHLEYPLTFGQGTKLEIKR
modifications: FAM-containing peptide attached site-specifically to the C-terminal sortag (LPET) by sortase
notes: Single chain variable fragment of monoclonal antibody IV.3, C-terminally modified with a FAM peptide by sortase; also called scIV.3-FAM; FAM-conjugated scIV.3; not shown: short semi-rigid linker, sortag LPET and the FAM-containing peptide joined by sortase
[5]
  Kd: 0.27 nM
[6]
  Kd: 11 nM
[7]
  Kd: 1 nM

B2: scIV.3 (single-chain variable fragment of IV.3, scIV.3-LPETGG) (scFv)
scFv: QVQLVQSGAEVKKPGASVKVSCKASGYTFTNYGMNWVRQAPGQRLEWMGWLNTYTGESWYPDDFKGRVTITRDTSASTAYMELSSLRSEDTAVYYCARGDYGYDDPLDYWGQGTLVTVSSGAGGSGGGGSGGGGSGGGGSDIVMTQSPLSLPVTPGEPASISCRSSKSLLHTNQNTYLHWFLQKPGQSPQLLIYRMSVLASGVPDRFSGSGSGTDFTLKISRVEAEDVGVYYCMQHLEYPLTFGQGTKLEIKRGSSSGLPETGGGHHHHHH
notes: also called His-tagged scIV.3; IV.3 scFv
[8]
  Kd: 0.9 nM

B3: scIV.3-IdeS (scFv)
chain: QVQLVQSGAEVKKPGASVKVSCKASGYTFTNYGMNWVRQAPGQRLEWMGWLNTYTGESWYPDDFKGRVTITRDTSASTAYMELSSLRSEDTAVYYCARGDYGYDDPLDYWGQGTLVTVSSGAGGSGGGGSGGGGSGGGGSDIVMTQSPLSLPVTPGEPASISCRSSKSLLHTNQNTYLHWFLQKPGQSPQLLIYRMSVLASGVPDRFSGSGSGTDFTLKISRVEAEDVGVYYCMQHLEYPLTFGQGTKLEIKRGSSSGLPETGGGSSDSFSANQEIRYSEVTPYHVTSVWTKGVTPPANFTQGEDVFHAPYVANQGWYDITKTFNGKDDLLCGAATAGNMLHWWFDQNKDQIKRYLEEHPEKQKINFNGEQMFDVKEAIDTKNHQLDSKLFEYFKEKAFPYLSTKHLGVFPDHVIDMFINGYRLSLTNHGPTPVKEGSKDPRGGIFDAVFTRGDQSKLLTSRHDFKEKNLKEISDLIKKELTEGKALGLSHTYANVRINHVINLWGADFDSNGNLKAIYVTDSDSNASIGMKKYFVGVNSAGKVAISAKEIKEDNIGAQVLGLFTLSTGQDSWNQTNHHHHHH
notes: also called IV.3-IdeS conjugate; His-tagged scIV.3-IdeS
[8]
  Kd: 1.3 nM
